From publication PMC3660597, “Investigation of Specificity Determinants in Bacterial tRNA-Guanine Transglycosylase Reveals Queuine, the Substrate of Its Eucaryotic Counterpart, as Inhibitor” (PLoS ONE, 2013)

Tested on: Tgt "wild type" (tRNA-guanine transglycosylase) (Zymomonas mobilis)
Test: MST
Settings: buffer, salt, pH and temperature not given in the material

Substance: tRNATyr
- Kd: 36.2 nM
